Results reported in ChEMBL document CHEMBL2074082, “Characterization of the monocarboxylate transporter 1 expressed in Xenopus laevis oocytes by changes in cytosolic pH” (Biochem J, 1998).

Assays:
Assay type in all cases: functional, cell-based
Settings in all cases: Oocyte
[1] = substrate: CC(C)CC(=O)C(=O)O; assay: (§1) TP_TRANSPORTER: change in intracellular pH(pHi)value in Xenopus laevis oocytes
[2] = substrate: CC(C)C(=O)C(=O)O; assay: as §1
[3] = substrate: C[C@@H](O)C(=O)O; assay: as §1
[4] = substrate: CC(=O)C(=O)O; assay: as §1

B1: Monocarboxylate transporter 1 (Rattus norvegicus), P53987 (protein)
chain: MPPAIGGPVGYTPPDGGWGWAVVVGAFISIGFSYAFPKSITVFFKEIEIIFSATTSEVSWISSIMLAVMYAGGPISSILVNKYGSRPVMIAGGCLSGCGLIAASFCNTVQELYFCIGVIGGLGLAFNLNPALTMIGKYFYKKRPLANGLAMAGSPVFLSTLAPLNQAFFGIFGWRGSFLILGGLLLNCCVAGSLMRPIGPQQGKVEKLKSKESLQEAGKSDANTDLIGGSPKGEKLSVFQTVNKFLDLSLFTHRGFLLYLSGNVVMFFGLFTPLVFLSNYGKSKHFSSEKSAFLLSILAFVDMVARPSMGLAANTRWIRPRVQYFFAASVVANGVCHLLAPLSTTYVGFCIYAGVFGFAFGWLSSVLFETLMDLVGPQRFSSAVGLVTIVECCPVLLGPPLLGRLNDMYGDYKYTYWACGVILIIAGLYLFIGMGINYRLVAKEQKAEEKKRDGKEDETSTDVDEKPKKTMKETQSPAPLQNSSGDPAEEESPV
- Km [1]: 670 µM
- Km [2]: 1250 µM
- Km [3]: 3500 µM
- Km [4]: 1010 µM
